Measured values published in patent US20180214548A1 (SHANGHAI YUNYI HEALTHCARE AND TECHNOLOGY, published 2018).

T1: ICOS (human, UniProt Q9Y6W8 21-140, limits assumed)
T1 sequence (looked up): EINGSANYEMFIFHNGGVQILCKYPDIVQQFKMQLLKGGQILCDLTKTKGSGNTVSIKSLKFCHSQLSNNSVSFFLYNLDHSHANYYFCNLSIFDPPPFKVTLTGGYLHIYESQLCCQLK

T2: B7-1 (human, UniProt P33681 35-242)
T2 sequence (looked up): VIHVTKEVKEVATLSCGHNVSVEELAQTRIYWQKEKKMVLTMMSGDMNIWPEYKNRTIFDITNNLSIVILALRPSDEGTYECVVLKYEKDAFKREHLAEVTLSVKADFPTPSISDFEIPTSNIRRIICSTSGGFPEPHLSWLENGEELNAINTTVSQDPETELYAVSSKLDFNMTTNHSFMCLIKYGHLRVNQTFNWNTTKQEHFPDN

T3: CTLA4 (human, UniProt P16410 37-162, limits assumed)
T3 sequence (looked up): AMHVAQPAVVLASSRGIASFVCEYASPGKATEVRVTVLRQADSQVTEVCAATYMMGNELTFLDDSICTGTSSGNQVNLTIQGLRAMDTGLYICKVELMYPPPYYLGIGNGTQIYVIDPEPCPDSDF


What was measured:
[1] = biological target: T4, full length human PD-1 on cells (human, UniProt Q15116 25-288); assay: flow cytometry, CHO-K1-hPD-1 cells; antibody 0.1 nM
T4 construct: Also used here for PD-1 on human T cells/PBMC; also called CHO-K1-hPD-1; hPD-1
T4 sequence (Q15116 25-288 limits assumed): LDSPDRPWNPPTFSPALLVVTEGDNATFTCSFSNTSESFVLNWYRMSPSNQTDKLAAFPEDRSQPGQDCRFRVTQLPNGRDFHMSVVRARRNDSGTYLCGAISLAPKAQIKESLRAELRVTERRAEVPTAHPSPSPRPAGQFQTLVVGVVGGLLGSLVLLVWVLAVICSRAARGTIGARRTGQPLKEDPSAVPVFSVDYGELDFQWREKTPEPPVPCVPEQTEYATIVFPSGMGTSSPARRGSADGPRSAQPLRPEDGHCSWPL
Text: (§1) CHO-K1 cells were stably transfected with pIRES plasmid containing the nucleic acid sequence encoding full length human PD-1 (see Example 2, step 2) to generate CHO-K1 cells stably expressing human PD-1 (herein referred to as CHO-K1-hPD-1 cells). Other CHO-K1 were stably transfected with pIRES plasmid containing the nucleic acid sequence encoding full length cyno PD-1 to generate CHO-K1 cells stably expressing cyno PD-1 (herein referred to as CHO-K1-cPD-1 cells). CHO-K1-hPD-1 and CHO-K1-cPD-1 cells were cultured and expanded in T-75 culture flasks to 90% confluence. The culture media was aspirated, and the cells were washed twice with HBSS (Hanks Balanced Salt Solution, Invitrogen). The cells were treated with enzyme-free cell dissociation solution (Versene solution, Invitrogen) and collected. The cells were then washed twice with HBSS, cell counts were determined, and cells were resuspended with HBSS at 2×10⁶ cells/mL. Goat serum was added to the cell suspension to a final concentration of 1%, and the cells were blocked for 30 minutes on ice and then washed twice with HBSS. The cells were collected after centrifugation and resuspended in FACS buffer (HBSS+1% BSA, v/v) at 2×10⁶ cells/mL. 100 uL of the cell suspension were then added to each well of 96-well plate. 100 uL of purified anti-PD-1 antibodies from Example 2 were added to each well of the 96-well plate and incubated for 2 hours on ice. […] The samples were washed three times with FACS buffer, and 100 uL fixation buffer (4% paraformaldehyde v/v) were added to each well and incubated for 10 minutes. The cells were then washed twice with FACS buffer and resuspended in 100 uL FACS buffer. The mean fluorescence intensity (MFI) was determined using FACS Calibur (BD), and the results are shown in FIGS. 7-8 and in Tables 10-11.

[2] = biological target: T5, cyno PD-1^ECD-hFc protein (cyno monkey, UniProt B0LAJ3 25-167); assay: ELISA, coated cyno PD-1ECD-hFc; antibody 1 nM
T5 construct: Prepared by the method for Immunogen A; also called Cyno Monkey PD-1^ECD-hFc; cyno monkey PD-1-hFc; not shown: human IgG Fc fragment (hFc) and its junction to the ECD
T5 sequence (B0LAJ3 entry or part of it limits assumed): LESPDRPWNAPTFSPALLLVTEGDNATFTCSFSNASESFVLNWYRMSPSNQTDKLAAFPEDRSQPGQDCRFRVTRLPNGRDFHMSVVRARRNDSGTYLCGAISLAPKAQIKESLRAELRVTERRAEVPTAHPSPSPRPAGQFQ
Description: (§2) 100 uL of the diluted recombinant proteins were added to each well of 96-well plate. The plates were sealed with plastic film and incubated at 4° C. overnight. The plates were washed twice with wash buffer (PBS+0.01% (v/v) Tween20), and incubated with blocking buffer (PBS+0.01% (v/v) Tween20+1% (w/w) BSA) at room temperature for 2 hours. The blocking buffer was aspirated away, and 100 uL of purified anti-PD-1 antibodies were added to each well and incubated for 2 hours at 37° C. The plates were washed three times with wash buffer (PBS+0.01% (v/v) Tween20). HRP-conjugated secondary antibody (Sigma) was added to each well and incubated for 2 hours at 37° C. After the plates were washed three times with wash buffer, 100 uL TMB substrate was added to each well and incubated for 30 minutes at room temperature. 100 uL stop solution (0.1N HCl) was added to each well to stop the reaction. The absorbance at 450 nm was measured with an ELISA plate reader (384plus SpectraMax, Molecular Devices).

[3] = biological target: T1, ICOS; assay: ELISA on coated protein (Table 9)
Description: as §2

[4] = biological target: CD28 (human, UniProt P10747 19-152); assay: ELISA on coated protein (Table 9)
Chain of CD28 (P10747 19-152 limits assumed): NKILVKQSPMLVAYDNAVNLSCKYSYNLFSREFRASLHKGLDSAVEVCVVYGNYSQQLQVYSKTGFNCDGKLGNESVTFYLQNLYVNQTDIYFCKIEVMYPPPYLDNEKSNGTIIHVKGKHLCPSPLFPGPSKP
Description: as §2

[5] = biological target: T2, B7-1; assay: ELISA on coated protein (Table 9)
Description: as §2

[6] = biological target: T3, CTLA4; assay: ELISA on coated protein (Table 9)
Description: as §2

[7] = biological target: T6, human PD-1^ECD-hFc protein (Immunogen A) (human, UniProt Q15116 25-167); assay: protein-based receptor-ligand blocking ELISA: coated PD-1ECD-hFc, blocked ligand biotinylated PD-L1ECD, streptavidin-HRP
T6 construct: Biotinylated for the Octet assay; also called PD-1-hFc; hPD-1^ECD-hFc; not shown: human IgG Fc fragment (hFc)
T6 sequence (Q15116 25-167): as the sequence (B0LAJ3 entry or part of it limits assumed) above, with E2D, A10P, L19V, A35T, R75Q counted along it
Description: Purified PD-1^ECD-hFc (Example 2) was diluted with PBS to a final concentration of 1.0 ug/mL, and 100 uL diluted PD-1^ECD-hFc were added to each well of a 96-well plate that was then sealed with plastic film and incubated at 4° C. overnight. The plate was washed twice with wash buffer (PBS+0.01% (v/v) Tween 20) and incubated with blocking buffer (PBS+[…]) at room temperature for 2 hours. The blocking buffer was aspirated, and 50 uL purified anti-PD-1 antibodies from Example 2 were added to each well of 96-well plate. […] The plate was washed three times with wash buffer (PBS+0.01% (v/v) Tween 20). 100 uL HRP-conjugated streptavidin (Sigma) were then added to each well and incubated at 37° C. for 2 hours. The plate was then washed three times with wash buffer, and 100 uL TMB substrate were added to each well. After 30 minutes of incubation at room temperature, the reaction was stopped by adding 100 uL stop solution (0.1N HCl). The absorbance at OD450 nm was measured with an ELISA plate reader (384plus SpectraMax, Molecular Devices).

[8] = biological target: T4, full length human PD-1 on cells; assay: flow cytometry, CHO-K1-hPD-1 cells; antibody 31.6 nM
Text: as §1

[9] = biological target: T4, full length human PD-1 on cells; assay: flow cytometry, CHO-K1-hPD-1 cells; antibody 0.316 nM
Text: as §1

| Binder | Mean fluorescence intensity [1] | OD450 nm [2] | binding result [3] | binding result [4] | binding result [5] | binding result [6] | IC50 (read off the curve) [7] | Mean fluorescence intensity [8] | Mean fluorescence intensity [9] |
| --- | --- | --- | --- | --- | --- | --- | --- | --- | --- |
| chimeric anti-PD-1 antibody 21G8F11 (antibody, V domains shown, Purified from hybridoma of Harbour H2L2 mice: human variable regions, rat constant regions) VH: EVQLLESGGGLAQPGGSLRLSCAASGFSFNTYLMHWVRQAPGKGLEWVSAISGGGGNTYYADSVKGRFTISRDNSKNTLYLQMNSLRAEDTAVYYCAKENRIPVAPFDYWGQGTLVTVSS VL: DIQMTQSPSTLSASVGDRVTITCRASQSISTWLAWYQQKPGKAPKLLIYKASSLESGVPSRFSGSGSGTEFTLTISSLQPDDLATYYCQQYNSFSWTFGQGTKVEIK | 22.8 | 2.45 | no binding | no binding | no binding | no binding | ~0.4 µg/mL | – | – |
| chimeric anti-PD-1 antibody 76G5B3 (antibody, V domains shown, Purified from hybridoma of Harbour H2L2 mice: human variable regions, rat constant regions) VH: QVQLVESGGGVVQPGRSLRLSCAASGFTFSDYGFHWVRQAPGKGLEWVAVIWYDGSNEYYTDSVKGRFTISRDNSKNTLYLQMNSLRAEDTAMYFCVVNPFDYWGQGTLVTVSS VL: DIQMTQSPSSLSAFVGDRVTITCRASQGINHYLAWYQQKPGKAPNLLILAASTLLSGVPSRFGGRGSGTDFTLIISSLQPEDVATYYCQKYDSAPYTFGQGTKLEIK | 36.2 | 1.4 | no binding | no binding | no binding | no binding | ~0.9 nM | 466 | 76.8 |
| chimeric anti-PD-1 antibody 32B5C7 (antibody, V domains shown, Purified from hybridoma of Harbour H2L2 mice: human variable regions, rat constant regions) VH: EVQLLESGGGLVQPGGSLRLSCAASGFTFSSYAMSWVRQAPGKGLEWVSTISGSGGTTYYADSVKGRFTISRDNSKNTLYLQMNSLRAEDTAVYYCTLTGDPDYWGQGTLVTVSS VL: EIVLTQSPATLSLSPGERATLSCRASQSVSSYLAWYQQKPGQAPRLLIYDASKRATGIPARFSGSGSGTDFTLTISSLEPEDFAVYYCQQRNNWPLTFGGGTKVEIK | 13.2 | 1.03 | no binding | no binding | no binding | no binding | ~1 nM | 241 | 26.1 |
